{
  "source": "patent US7642231",
  "about": "(MAYO FOUNDATION FOR MEDICAL EDUCATION AND RESEARCH A …, dated 2010)",
  "key": {"[1]": {"biological_target": "Dopamine receptors, human brain tissue (human) (UniProt P14416)", "sequence (P14416 whole entry)": "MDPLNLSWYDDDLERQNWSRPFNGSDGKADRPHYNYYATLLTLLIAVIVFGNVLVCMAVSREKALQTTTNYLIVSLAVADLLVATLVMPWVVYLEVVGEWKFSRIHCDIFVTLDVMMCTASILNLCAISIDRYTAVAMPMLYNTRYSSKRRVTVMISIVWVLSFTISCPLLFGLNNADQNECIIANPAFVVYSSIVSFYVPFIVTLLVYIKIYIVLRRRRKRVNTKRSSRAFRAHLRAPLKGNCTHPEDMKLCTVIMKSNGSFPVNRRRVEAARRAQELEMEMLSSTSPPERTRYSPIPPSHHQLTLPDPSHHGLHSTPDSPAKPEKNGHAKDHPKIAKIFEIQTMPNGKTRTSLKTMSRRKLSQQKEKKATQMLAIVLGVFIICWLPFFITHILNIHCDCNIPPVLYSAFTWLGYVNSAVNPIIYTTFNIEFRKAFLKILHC", "assay": "radiolabeled competitive binding assay, human brain tissue"}, "[2]": {"biological_target": "adrenergic α2 receptors, human brain tissue (human)", "assay": "radiolabeled competitive binding assay, human brain tissue"}, "[3]": {"biological_target": "T1, rat NTR1 (rat, UniProt P20789 1-424)", "T1 sequence (P20789 whole entry)": "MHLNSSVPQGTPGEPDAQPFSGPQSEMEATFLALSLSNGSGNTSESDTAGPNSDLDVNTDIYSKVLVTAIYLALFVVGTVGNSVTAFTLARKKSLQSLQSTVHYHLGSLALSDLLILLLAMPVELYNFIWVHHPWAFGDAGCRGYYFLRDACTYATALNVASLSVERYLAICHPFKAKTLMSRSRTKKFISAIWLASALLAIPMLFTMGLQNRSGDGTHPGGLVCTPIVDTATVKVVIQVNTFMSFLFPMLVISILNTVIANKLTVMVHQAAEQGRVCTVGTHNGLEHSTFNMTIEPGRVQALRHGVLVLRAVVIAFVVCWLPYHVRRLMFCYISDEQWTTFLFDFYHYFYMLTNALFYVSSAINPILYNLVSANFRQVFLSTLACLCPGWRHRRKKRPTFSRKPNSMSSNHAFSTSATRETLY", "assay": "competition with [3H]NT, membranes of CHO-K1 cells expressing rat NTR1", "procedure": "(§1) For binding assays, crude membranal preparations were prepared by centrifugation of the cellular pellet at 35,600×g for ten minutes. The supernatant was decanted and discarded, and the cellular pellet was resuspended in 2 mL of Tris-HCl, 1 mM EDTA (pH 7.4) followed by homogenization with a Brinkmann Polytron at setting 6 for ten seconds. Centrifugation was repeated as above and the supernatant was decanted and discarded. The resulting final cellular pellet was resuspended in 50 mM Tris-HCl, 1 mM EDTA, 0.1% bovine serum albumin, and 0.2 mM bacitracin.\n(§2) Incubation was at 20° C. for 30 minutes. Each reaction was terminated by addition of cold 0.9% NaCl (5×1.5 mL) followed by rapid filtration through a GF/B filter strip that had been pretreated with 0.2% polyethylenimine."}, "[4]": {"biological_target": "T1, rat NTR1", "assay": "radiolabeled competitive binding assay, CHO cells expressing rat NTR (repeats Table II)", "procedure": "as §1, §2"}, "[5]": {"biological_target": "T1, rat NTR1", "assay": "cell-based or functional assay"}, "[6]": {"biological_target": "T2, 5HT2A receptor in human brain tissue (human, UniProt P28223 1-471)", "T2 construct": "whole, on cells; Native receptor in human brain tissue, labeled with [3H]ketanserin; also called serotonin receptor", "T2 sequence (P28223 whole entry)": "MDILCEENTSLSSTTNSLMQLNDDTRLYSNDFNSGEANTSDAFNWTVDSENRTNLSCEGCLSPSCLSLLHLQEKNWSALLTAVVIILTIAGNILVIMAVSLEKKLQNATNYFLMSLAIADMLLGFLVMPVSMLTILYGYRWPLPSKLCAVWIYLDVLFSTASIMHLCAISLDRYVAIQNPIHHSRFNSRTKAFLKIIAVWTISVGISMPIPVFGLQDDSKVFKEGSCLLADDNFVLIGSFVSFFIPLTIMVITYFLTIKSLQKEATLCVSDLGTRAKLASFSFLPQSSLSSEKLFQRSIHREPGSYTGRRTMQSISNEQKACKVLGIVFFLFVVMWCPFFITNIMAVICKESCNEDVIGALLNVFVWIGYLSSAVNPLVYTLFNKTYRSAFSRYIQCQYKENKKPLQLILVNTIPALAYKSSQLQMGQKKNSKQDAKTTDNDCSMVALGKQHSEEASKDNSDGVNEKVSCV", "assay": "competition with [3H]ketanserin, human brain tissue"}, "[7]": {"biological_target": "T3, human NTR1 (human, UniProt P30989 1-418)", "T3 sequence (P30989 whole entry)": "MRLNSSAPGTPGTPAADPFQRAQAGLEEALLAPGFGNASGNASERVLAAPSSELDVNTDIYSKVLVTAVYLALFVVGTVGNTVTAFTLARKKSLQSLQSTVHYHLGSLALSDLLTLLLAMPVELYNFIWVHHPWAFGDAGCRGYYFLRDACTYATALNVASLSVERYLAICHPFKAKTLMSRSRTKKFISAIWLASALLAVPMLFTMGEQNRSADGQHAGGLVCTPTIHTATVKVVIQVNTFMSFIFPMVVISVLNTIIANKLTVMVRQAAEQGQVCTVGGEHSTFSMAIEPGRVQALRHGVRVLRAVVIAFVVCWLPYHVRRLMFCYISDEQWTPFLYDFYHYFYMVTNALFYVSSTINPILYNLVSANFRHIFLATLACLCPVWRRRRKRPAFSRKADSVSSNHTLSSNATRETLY", "assay": "competition with [3H]NT, membranes of CHO-K1 cells expressing human NTR1"}, "[8]": {"biological_target": "T3, human NTR1", "assay": "cell-based or functional assay"}, "[9]": {"biological_target": "T3, human NTR1", "assay": "radiolabeled competitive binding assay, CHO cells expressing human NTR (repeats Table II)", "procedure": "as §1, §2"}, "[10]": {"biological_target": "NT binding sites within rat brain (PAG and rest of brain homogenates) (rat)", "assay": "0.3 nM [125I]NT binding to PAG homogenate of NT69L-treated rats"}, "[11]": {"biological_target": "NT binding sites within rat brain (PAG and rest of brain homogenates) (rat)", "assay": "0.3 nM [125I]NT binding to PAG homogenate of control rats"}, "[12]": {"biological_target": "NT binding sites within rat brain (PAG and rest of brain homogenates) (rat)", "assay": "0.3 nM [125I]NT binding to rest-of-brain homogenate of NT69L-treated rats"}, "[13]": {"biological_target": "T3, human NTR1", "assay": "competition with [3H]NT, CHO-K1 membranes; receptor not given, human fits Table II", "procedure": "as §1, §2"}, "[14]": {"biological_target": "T3, human NTR1", "assay": "competition with [3H]NT, membranes of CHO-K1 cells expressing human NTR1", "procedure": "as §1, §2"}, "[15]": {"biological_target": "T3, human NTR1", "assay": "cell-based or functional assay", "remark": "listed apart in the source"}, "[16]": {"biological_target": "T3, human NTR1", "assay": "competition with [3H]NT, CHO-K1 membranes; receptor not given, human taken from the context", "procedure": "as §1, §2"}, "[17]": {"biological_target": "T3, human NTR1", "assay": "cell-based or functional assay", "remark": "listed apart in the source"}, "[18]": {"biological_target": "adrenergic α1 receptors, human brain tissue (human)", "assay": "radiolabeled competitive binding assay, human brain tissue"}},
  "note": "Where two headings read alike, the source gives them in different places. Numbered stars: 1 amine (or outer) side, 2 acyl side, 3 side chain; on linkers, the order of the positions; unused ones are H or OH. Square brackets hold non-standard residues; d marks the D form. Ends that are not written are not given here. dneoTrp = D-neo-Trp, (2R)-2-amino-3-(1H-indol-4-yl)propanoic acid, O=C([C@@H](Cc1cccc2[nH]ccc12)N[*:1])[*:2]; Ala(indol-4-yl) = N[C@@H](Cc1cccc2[nH]ccc12)C(=O)O; 1Nal = N[C@@H](Cc1cccc2ccccc12)C(=O)O; NMeR = CN[C@@H](CCCNC(=N)N)C(=O)O; Tle = CC(C)(C)[C@H](N)C(=O)O",
  "data": [
    {"molecule": "NT69L (peptide)", "values": [
      {"measurement": "Kd", "setting": "[1]", "result": 13300, "unit": "nM"},
      {"measurement": "Kd", "setting": "[2]", "result": 58600, "unit": "nM"},
      {"measurement": "Kd", "setting": "[3]", "result": 0.82, "unit": "nM"},
      {"measurement": "fold increase in binding affinity over Eisai", "setting": "[3]", "result": 6, "unit": "fold"},
      {"measurement": "Kd", "setting": "[4]", "result": 0.82, "unit": "nM"},
      {"measurement": "PI Turnover EC50", "setting": "[5]", "result": 1.34, "unit": "nM"},
      {"measurement": "PI turnover potency, fold improvement over Eisai analog", "setting": "[5]", "result": 2, "unit": "fold"},
      {"measurement": "Kd", "setting": "[6]", "result": 34600, "unit": "nM"},
      {"measurement": "Kd", "setting": "[7]", "result": 1.55, "unit": "nM"},
      {"measurement": "fold increase in binding affinity over Eisai", "setting": "[7]", "result": 60, "unit": "fold"},
      {"measurement": "PI Turnover EC50", "setting": "[8]", "result": 2.3, "unit": "nM"},
      {"measurement": "PI turnover potency, fold improvement over Eisai analog", "setting": "[8]", "result": 130, "unit": "fold"},
      {"measurement": "Kd", "setting": "[9]", "result": 1.55, "unit": "nM"}
    ]},
    {"molecule": "Neurotensin (NT) (peptide)", "values": [
      {"measurement": "dpm/µg protein (dpm/µg protein)", "setting": "[10]", "result": 1.89},
      {"measurement": "dpm/µg protein (dpm/µg protein)", "setting": "[11]", "result": 2.34},
      {"measurement": "dpm/µg protein (dpm/µg protein)", "setting": "[12]", "result": 2.1}
    ]},
    {"molecule": "RRP[dneoTrp]IL (NT(8-13) analog)", "note": "[NT64D]", "values": [
      {"measurement": "Kd", "setting": "[3]", "result": 3.8, "unit": "nM"}
    ]},
    {"molecule": "RRP[Ala(indol-4-yl)][Tle]L (NT(8-13) analog)", "note": "[NT65L]", "values": [
      {"measurement": "fold decrease in binding affinity compared to NT64L", "setting": "[13]", "result": 3, "unit": "fold"},
      {"measurement": "Kd", "setting": "[3]", "result": 0.075, "unit": "nM"},
      {"measurement": "Kd", "setting": "[14]", "result": 0.32, "unit": "nM"}
    ]},
    {"molecule": "[dK]RPYIL (NT(8-13) analog)", "note": "[NT2]", "values": [
      {"measurement": "Kd", "setting": "[3]", "result": 0.8, "unit": "nM"},
      {"measurement": "Kd", "setting": "[6]", "result": 6800, "unit": "nM"}
    ]},
    {"molecule": "RRPYIL (Synthetic hexapeptide, residues 8-13 of neurotensin)", "note": "[NT(8-13)]", "values": [
      {"measurement": "Kd", "setting": "[6]", "result": 4400, "unit": "nM"}
    ]},
    {"molecule": "RRPWIL", "note": "[NTW]", "values": [
      {"measurement": "Kd", "setting": "[3]", "result": 0.34, "unit": "nM"},
      {"measurement": "PI Turnover EC50", "setting": "[15]", "result": 110, "unit": "nM"},
      {"measurement": "fold reduction in binding affinity compared to NT64L", "setting": "[16]", "result": "> 30", "unit": "fold"},
      {"measurement": "Kd", "setting": "[14]", "result": 3.2, "unit": "nM"}
    ]},
    {"molecule": "[NMeR]KPW[Tle]L (Hexapeptide N-methyl-Arg, L-Lys, L-Pro, L-Trp, tert-Leu, L-Leu (Tsuchiya et al., EP application 89104302.8); also called Eisai compound; Eisai analog)", "note": "[Eisai]", "values": [
      {"measurement": "PI turnover potency, fold weaker at human than at rat NT receptor", "setting": "[17]", "result": "~100", "unit": "fold"},
      {"measurement": "Kd", "setting": "[3]", "result": 5.4, "unit": "nM"},
      {"measurement": "PI Turnover EC50", "setting": "[5]", "result": 3.1, "unit": "nM"},
      {"measurement": "PI Turnover EC50", "setting": "[15]", "result": 300, "unit": "nM"},
      {"measurement": "Kd", "setting": "[14]", "result": 95, "unit": "nM"},
      {"measurement": "fold weaker than at the rat receptor", "setting": "[14]", "result": "~20", "unit": "fold"}
    ]},
    {"molecule": "[dK]RP[Ala(indol-4-yl)]IL (NT(8-13) analog)", "note": "[NT67L]", "values": [
      {"measurement": "Kd", "setting": "[18]", "result": 6900, "unit": "nM"},
      {"measurement": "Kd", "setting": "[3]", "result": 0.21, "unit": "nM"},
      {"measurement": "Kd", "setting": "[4]", "result": 0.21, "unit": "nM"},
      {"measurement": "PI Turnover EC50", "setting": "[5]", "result": 13, "unit": "nM"},
      {"measurement": "Kd", "setting": "[6]", "result": 7400, "unit": "nM"}
    ]},
    {"molecule": "RRP[Ala(indol-4-yl)]IL (NT(8-13) analog)", "note": "[NT64L]", "values": [
      {"measurement": "Kd", "setting": "[3]", "result": 0.1, "unit": "nM"},
      {"measurement": "PI Turnover EC50", "setting": "[5]", "result": 2.3, "unit": "nM"},
      {"measurement": "Kd", "setting": "[6]", "result": 6600, "unit": "nM"}
    ]},
    {"molecule": "RPYIL (Synthetic pentapeptide, residues 9-13 of neurotensin)", "note": "[NT(9-13)]", "values": [
      {"measurement": "Kd", "setting": "[3]", "result": 46, "unit": "nM"},
      {"measurement": "fold weaker than NT(8-13)", "setting": "[3]", "result": "> 200", "unit": "fold"},
      {"measurement": "PI Turnover EC50", "setting": "[15]", "result": 380, "unit": "nM"},
      {"measurement": "Kd", "setting": "[6]", "result": 6340, "unit": "nM"},
      {"measurement": "Kd", "setting": "[14]", "result": 30, "unit": "nM"},
      {"measurement": "fold weaker than NT(8-13)", "setting": "[14]", "result": "> 200", "unit": "fold"}
    ]},
    {"molecule": "RRP[1Nal]IL (NT(8-13) analog)", "note": "[NT34]", "values": [
      {"measurement": "Kd", "setting": "[3]", "result": 0.046, "unit": "nM"}
    ]}
  ]
}
